In assay [1] the target is T1, human CD47, full length, on transfected cells (human, UniProt Q08722 19-323).
T1 construct: whole, on cells; also called CHOK1-hCD47
Description: flow cytometry (FACS) on CHOK1-hCD47 cells, mean fluorescence intensity. In general terms: Flow cytometry measures light scatter and fluorescence of single cells or particles in a stream.
Description: (§1) The CHOK1-hCD47 stable cell lines and CHOK1-cCD47 stable cell lines were expanded to 90% confluence in a T-75 cell culture flask, the medium was exhausted, washed twice with HBSS buffer (Hanks balanced salt solution) (purchased from Invitrogen), and then treated and collected with enzyme-free cell dissociation solution (Versene solution: purchased from Life technology). The cells were washed twice with HBSS buffer. After counted, the cells were diluted with HBSS to 2×10⁶ cells per ml, added with 1% goat serum blocking solution, wherein the percentage was the mass percantage, incubated on ice for 30 minutes, and then washed twice with HBSS by centrifugation. […] The plate was washed 3 times with FACS buffer by centrifugation, added with 100 μl fixative solution [4% (v/v) Paraformaldehyde] per well to suspend the cells. 10 minutes later, it was washed twice with FACS buffer by centrifugation. The cells were suspended with 100 microliters of FACS buffer, FACS (FACS Calibur, purchased from BD) was used for detection and the results were analyzed.

The target in assay [2] is T2, mouse CD47, on CHOK1/mCD47 cells (mouse, UniProt Q61735 19-303).
T2 construct: whole, on cells; also called murine CD47
T2 sequence (looked up): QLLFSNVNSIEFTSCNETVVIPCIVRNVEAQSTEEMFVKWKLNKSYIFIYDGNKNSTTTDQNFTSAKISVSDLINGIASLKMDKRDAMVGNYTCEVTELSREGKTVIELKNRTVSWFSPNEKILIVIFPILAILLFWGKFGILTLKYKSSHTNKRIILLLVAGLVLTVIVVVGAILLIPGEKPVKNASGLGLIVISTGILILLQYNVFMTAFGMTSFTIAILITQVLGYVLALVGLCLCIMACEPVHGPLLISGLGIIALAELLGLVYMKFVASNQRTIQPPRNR
The assay is described as follows: flow cytometry (FACS) on CHOK1-mCD47 cells, mean fluorescence intensity.

The target of assay [3] is T3, cynomolgus CD47, on CHOK1-cCD47 stable cell line (cynomolgus).
T3 construct: whole, on cells; check before use; also called CHOK1/cynoCD47; monkey-derived CD47
Description: flow cytometry (FACS) on CHOK1-cynoCD47 cells, mean fluorescence intensity.
Description: as §1

In assay [4] the target is T4, biotin-labeled CD47 extracellular domain protein (CD47-ECD) (UniProt Q08722 19-139, limits assumed, biotin-labeled (sites not given)).
T4 construct: extracellular domain; also called CD47 protein
The assay is described as follows: blocking ELISA: SIRPα-hFc coated, biotin-labeled CD47-ECD added with the antibody, OD450; blocked ligand SIRPα-hFc. In general terms: An ELISA detects its analyte on a solid surface through an enzyme-linked reagent.

In assay [5] the target is T1, human CD47, full length, on transfected …. Description: FACS CHOK1-hCD47; Ab 8 nM.
Description: as §1
In assay [6] the target is T3, cynomolgus CD47, on CHOK1-cCD47 stable …. The assay is described as follows: FACS CHOK1-cCD47; Ab 8 nM.
The target of assay [7] is T1, human CD47, full length, on transfected …. Description: FACS CHOK1-hCD47; Ab 40 nM.
Description: as §1
For assay [8], the target named is T3, cynomolgus CD47, on CHOK1-cCD47 stable …. The assay is described as follows: FACS CHOK1-cCD47; Ab 40 nM.
Description: as §1
Assay [9] has as its target T1, human CD47, full length, on transfected …. Description: FACS CHOK1-hCD47; Ab 1.6 nM.
Assay [10] has the same target. Description: FACS CHOK1-hCD47; Ab 200 nM.
Assay [11] deals with T3, cynomolgus CD47, on CHOK1-cCD47 stable …. Description: FACS CHOK1-cCD47; Ab 1.6 nM.
Description: as §1
The target is the same in assay [12]. Description: FACS CHOK1-cCD47; Ab 200 nM.
Description: as §1
The target in assay [13] is T1, human CD47, full length, on transfected …. Description: FACS CHOK1-hCD47; Ab 0.32 nM.
Description: as §1
In assay [14] the target is T3, cynomolgus CD47, on CHOK1-cCD47 stable …. The assay is described as follows: FACS CHOK1-cCD47; Ab 0.32 nM.
Description: as §1
Assay [15] deals with T1, human CD47, full length, on transfected …. The assay is described as follows: FACS CHOK1-hCD47; Ab 0.064 nM.
Description: as §1
The target of assay [16] is T3, cynomolgus CD47, on CHOK1-cCD47 stable …. The assay is described as follows: FACS CHOK1-cCD47; Ab 0.064 nM.
Description: as §1
The target of assay [17] is T1, human CD47, full length, on transfected …. Description: FACS CHOK1-hCD47; Ab 0.0128 nM.
Description: as §1
The target in assay [18] is T3, cynomolgus CD47, on CHOK1-cCD47 stable …. Description: FACS CHOK1-cCD47; Ab 0.0128 nM.
Description: as §1
Assay [19] concerns the target T5, His-tagged CD47 recombinant protein, CD47-His (human, UniProt Q08722 19-141, limits assumed).
T5 construct: it is not restated for CD47-His; also called human CD47-His protein; antigen CD47-His; not shown: His tag
The assay is described as follows: ELISA on coated CD47-His; Ab 0.004 nM.

Assay [20] concerns the target T5, His-tagged CD47 recombinant protein, …. The assay is described as follows: ELISA on coated CD47-His; Ab 0.021 nM.
Assay [21] has the same target. Description: ELISA on coated CD47-His; Ab 0.107 nM.
The target is the same in assay [22]. Description: ELISA on coated CD47-His; Ab 0.533 nM.
Description: (§2) The plate was sealed with plastic film and incubated at 4° C. overnight. The plate was washed twice with plate washing solution [PBS+0.01% (v/v) Tween20] the next day, and blocking solution [PBS+0.01% (v/v) Tween20 +1% (w/w) BSA] was added to block it at room temperature for 2 hours. […] After incubation at 37° C. for 2 hours, the plates were washed three times with plate washing solution [PBS+0.01% (v/v) Tween 20]. HRP (horseradish peroxidase) labeled secondary antibody (purchased from Sigma) was added, incubated at 37° C. for 2 hours, and then washed three times with plate washing solution [PBS+0.01% (v/v) Tween 20]. 1000 of TMB substrate was added to each well. After incubated at room temperature for 30 minutes, the plate was added with 100 μl of stop solution (1.0N HCl) to each well.
Assay [23] shares this target. The assay is described as follows: ELISA on coated CD47-His; Ab 2.667 nM.
For assay [24] the target is unchanged. The assay is described as follows: ELISA on coated CD47-His; Ab 13.333 nM.
Assay [25] has the same target. The assay is described as follows: ELISA on coated CD47-His; Ab 66.667 nM.
Assay [26] concerns the target T1, human CD47, full length, on transfected …. Description: FACS CHOK1-hCD47; Ab 0 nM (background).
Assay [27] has as its target T3, cynomolgus CD47, on CHOK1-cCD47 stable …. The assay is described as follows: FACS CHOK1-cCD47; Ab 0 nM (background).
Assay [28] deals with T5, His-tagged CD47 recombinant protein, …. Description: ELISA on coated CD47-His; Ab 0 nM (background).
Description: as §2
For assay [29], the target named is T4, biotin-labeled CD47 extracellular …. The assay is described as follows: blocking ELISA, biotin-CD47-ECD on coated SIRPα-hFc; Ab 0 nM.
Assay [30] has the same target. The assay is described as follows: blocking ELISA, biotin-CD47-ECD on coated SIRPα-hFc; Ab 8 nM.
The target is the same in assay [31]. Description: blocking ELISA, biotin-CD47-ECD on coated SIRPα-hFc; Ab 40 nM.
Assay [32] has the same target. Description: blocking ELISA, biotin-CD47-ECD on coated SIRPα-hFc; Ab 1.6 nM.
Description: (§3) The plate was sealed with plastic film and incubated at 4° C. overnight. The plate was washed twice with plate washing solution [PBS+0.01% (v/v) Tween20] on the next day, and blocking solution [PBS+0.01% (v/v) Tween20 +1% (w/w) BSA] was added to block it at room temperature for 2 hours. […] After incubation at 37° C. for 2 hours, the plate was washed three times with the plate washing solution [PBS+0.01% (v/v) Tween 20]. HRP (horseradish peroxidase) labeled avidin diluent (purchased from Sigma) was added as 100 microliters per well, and after the plate was incubated for 2 hours at 37° C., it was washed 3 times with washing solution [PBS+0.01% (v/v) Tween 20]. 100 μl of TMB substrate was added to each well. After incubated at room temperature for 30 minutes, the plate was added with 100 μl of stop solution (1.0N HCl) to each well.
Assay [33] has the same target. The assay is described as follows: blocking ELISA, biotin-CD47-ECD on coated SIRPα-hFc; Ab 200 nM.
Description: as §3
Assay [34] shares this target. The assay is described as follows: blocking ELISA, biotin-CD47-ECD on coated SIRPα-hFc; Ab 0.32 nM.
For assay [35] the target is unchanged. Description: blocking ELISA, biotin-CD47-ECD on coated SIRPα-hFc; Ab 0.064 nM.
Description: as §3
Assay [36] shares this target. Description: blocking ELISA, biotin-CD47-ECD on coated SIRPα-hFc; Ab 0.0128 nM.
Description: as §3

A word on the EC50 (read off the curve): it is the concentration giving half of the maximal effect.

B1: 29A03 WT (antibody, V domains shown)
VH: EVQLQQSGAELVKPGASVKMSCKASGYTFTNYWITWVKQRPGQGLEWIGDIYPVSGGTDYNEKFKTRATLTVDTSSSTAYMHLSSLTSEDSAVYYCARKGRGGVDYWGQGTTLTVSS
VL: DILMTQTPLSLPVSLGDQASISCRSSQSIVHSNGNTYLEWYLQKPGQSPKLLIYKVSNRFSGVPDRFSGSGSGTDFTLKISRVEAEDLGVYFCSQSTHVPYTFGGGTKLEIK
notes: WT = NG site of CDR-L1 not mutated
Regarding B1, the “EC50 (read off the curve)” value in assay [1] is about 5 nM; in assay [2], about 10 nM; in assay [3] it was about 3 nM.

B2: 29A03 QG (antibody, V domains shown)
VH: EVQLQQSGAELVKPGASVKMSCKASGYTFTNYWITWVKQRPGQGLEWIGDIYPVSGGTDYNEKFKTRATLTVDTSSSTAYMHLSSLTSEDSAVYYCARKGRGGVDYWGQGTTLTVSS
VL: DILMTQTPLSLPVSLGDQASISCRSSQSIVHSQGNTYLEWYLQKPGQSPKLLIYKVSNRFSGVPDRFSGSGSGTDFTLKISRVEAEDLGVYFCSQSTHVPYTFGGGTKLEIK
B2: the “EC50 (read off the curve)” value in assay [1] is about 5 nM; in [2], about 10 nM; in assay [3], about 3 nM. Further, the “IC50 (read off the curve)” value in [4] was about 3 nM.

B3: 132D1E5 (antibody, V domains shown)
VH: QVQLQQPGAELVRPGSSVKLSCKASGYTFTNNWMHWVKQRPLQGLEWIGNIDPSDSETHYNQKFKDKATLTVDKSSTTAYIQLSSLTSEDSAVYYCARWRGGGRGAMDYWGQGTSVTVSS
VL: DVQITQSPSYLAASPGETITINCRTSKNISKFLAWYQEKPGKTNKLLIYSGSTLQSGIPSRFSGSGSGTDFTLTISNLEPEDFAMYYCQQHNEYPWTFGRGTKLEIK
notes: Murine hybridoma antibody purified on protein G
For B3, the mean fluorescence intensity in [5] was 6310; in assay [6], 8740; in assay [7], 8230; in assay [8], 5610; in assay [9] it was 3750; in [10], 7100. In addition, the mean fluorescence intensity in assay [11] amounted to 6060; in [12], 6970; in [13], 1330; in assay [14] it was 2060; in assay [15] it was 318; in assay [16], 689. Also, the mean fluorescence intensity in [17] turned out to be 88.4; in assay [18], 224; in [26], 18.1; in assay [27] it was 72.5. The OD450 nm is 0.14 in assay [19]; 0.49 in assay [20]; 1.83 in assay [21]; 2.96 in assay [22]; 3.07 in assay [23]; 2.95 in [24]. Moreover, the figures for the OD450 nm in [25] and in [28] were 2.88 and 0.06, respectively. Also, the “OD450 nm of CD47 bound to SIRPα” value in assay [29] came to 2.89; in [30] it was 0.07; in assay [31] it was 0.08; in assay [32] it was 0.16; in [33], 0.08; in [34], 0.79. Moreover, the “OD450 nm of CD47 bound to SIRPα” value is 2.55 in [35] and 2.92 in assay [36].

B4: Hu5F9-G4 (antibody, V domains shown)
VH: QVQLVQSGAEVKKPGASVKVSCKASGYTFTNYNMHWVRQAPGQRLEWMGTIYPGNDDTSYNQKFKDRVTITADTSASTAYMELSSLRSEDTAVYYCARGGYRAMDYWGQGTLVTVSS
VL: DIVMTQSPLSLPVTPGEPASISCRSSQSIVYSNGNTYLGWYLQKPGQSPQLLIYKVSNRFSGVPDRFSGSGSGTDFTLKISRVEAEDVGVYYCFQGSHVPYTFGQGTKLEIKR
As for B4, in [3], the “EC50 (read off the curve)” value is about 3 nM.
